Laboratory results reported in patent publication US11142588B2, “Polypeptides which bind C-X-C chemokine receptor type 4 (CXCR4) and methods of treating or reducing the risk of fibrosis and cancer” (AdAlta Limited, priority 2015, dated 2021).
Entries after “also recorded” stand apart in the source; their conditions may differ.

T1: CCR4 (Homo sapiens, UniProt P51679)
T1 sequence (P51679 1-360): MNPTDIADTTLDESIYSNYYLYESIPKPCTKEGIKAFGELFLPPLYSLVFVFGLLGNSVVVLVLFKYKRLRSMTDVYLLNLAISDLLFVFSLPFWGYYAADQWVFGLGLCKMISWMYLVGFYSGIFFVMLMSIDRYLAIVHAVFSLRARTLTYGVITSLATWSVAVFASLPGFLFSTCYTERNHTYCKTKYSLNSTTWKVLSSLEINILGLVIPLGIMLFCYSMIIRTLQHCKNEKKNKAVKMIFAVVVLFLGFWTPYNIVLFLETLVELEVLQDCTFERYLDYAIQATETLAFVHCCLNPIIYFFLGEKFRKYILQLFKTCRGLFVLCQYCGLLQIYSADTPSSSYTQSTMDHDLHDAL


Key:
[1] = Bleomycin mouse model of pulmonary fibrosis; assay type: in vivo
Description: The optimal dose of Bleomycin is 2 U/mouse and the optimal time for assessing fibrocyte recruitment was confirmed at day 4. At days 4 bronchoalvelolar lavage (BAL) fluids were collected for analysis of SDF-1 concentration. One half of the lung tissue was used to make single cell suspensions of the lung and the cells used for flow cytometry and assayed for CD45+, CXCR4+ and Collagen1+ (fibrocytes). The other half of the lung tissue was Sircol stained for the presence of collagen 1 and RNA will be tested for Col-1, Col-3 and SDF-1.
SDF-1, fibrocytes and collagen deposition were monitored at Day 4. Groups were dosed with the i-body just prior to administration with Bleomycin. One half of the lung tissue was minced and washed in PBS and used to make single cell suspensions of the lung with Collagenase A and dispase treatment. The cells were then used for flow cytometry and assayed for CD45+, CXCR4+ and Collagen1+ fibrocytes. […]

[2] = cited from earlier work
Ramos tumor cells [3] = test: Apoptosis assay (annexin V / propidium iodide flow cytometry); assay type: cell-based, human; details: annexin V and propidium iodide double positive, 24 or 72 hours
Method: The ability of an i-body of the invention to induce apoptosis in Ramos tumor cells (a human Burkitt's lymphoma cell line) was examined in an apoptosis assay according to the methods as described in Mishra M et al (2011) J Cell Mol Med 15(11):2462-77. I-bodies were incubated with Ramos cells and examined by flow cytometry after 24 or 72 hours. The cells were stained for annexin V and propidium iodide which are classic markers for apoptosis. Cells which were double positive were assessed to have become apoptotic.

[4] = tested on: normal and IPF lung fibroblasts; test: Wound healing invasion assay of lung fibroblasts; assay type: cell-based, human
Method: To determine the role of CXCR4 and CXCL12 in fibroblast invasion, normal and IPF lung fibroblasts were utilized in a wound healing invasion assay. ImageLock 96 well plates (Essen Bioscience) were coated with 50 μg/ml of Basement membrane extract (BME; Trevigen) for one hour at room temperature. Normal, and fibroblasts generated from lung biopsies of idiopathic pulmonary fibrosis (IPF) patients showing slow progression or rapid progression of the disease were plated (36,000 cells per well) on the BME-coated plates and incubated overnight. […] The BME was allowed to polymerize by incubating the plate at 37° C. for 15 minutes. The plates were then inserted into an IncuCyte Zoom imaging system and images were acquired every 2 hours for approximately 50 hours. Invasion was quantified using IncuCyte software (Essen Bioscience).

Ramos tumor cells [5] = test: MTT cell proliferation assay; assay type: cell-based, human; details: 24 to 72 hrs, AM3-114 at 10 μM
Method: The ability of the CXCR4 molecules or polypeptides disclosed herein (i-bodies) to inhibit proliferation of Ramos tumor cells, a human Burkitt's lymphoma cell line expressing CXCR4 mentioned above, in vitro was examined in a MTT cell proliferation assay as described in (Lapteva (2005) Cancer Gene Therapy 12, 84-89). Cells were grown in a 96-well tissue culture plate and treated with a vehicle or the anti-CXCR4 body. The cells were then incubated with the MTT solution for approximately 4 hours. After this incubation period, a water-insoluble formazan dye is formed. After solubilization, the formazan dye is quantitated using a scanning multi-well spectrophotometer (ELISA reader).

[6] = tested on: HIV entry into CXCR4 expressing T-cells; test: In vitro HIV inhibition assay; assay type: cell-based; details: Human immunodeficiency virus 1, T-cell
CCL2 and CCL5 protein = test: CCL2, CCL5, CXCL12 ELISA of fibroblast conditioned supernatants; assay type: cell-based, human; details: 48 hours
Description: Various reports indicate that CXCR4 signals in conjunction with other chemokine receptors, including CCR2.

[7] = Binding to null lipoparticles (off-target control)
Method: (FIGS. 2A-2C, 5A-5C, 11A-11D, 17A-17B) Kinetic binding analysis of selected i-bodies with immobilized CXCR4 lipoparticles were performed at 25° C. using Biacore T200 instrument (GE Healthcare, Uppsala, Sweden). Streptavidin immobilization was performed in 1×HBS-P+ running buffer (10 mM HEPES, 150 mM NaCl, 0.05% [v/v] Tween-20). Amine coupling kit (GE Healthcare) and the instructions therein were utilized for the attachment of Streptavidin (Sigma; diluted to 100 μg/mL in 10 mM sodium acetate buffer pH 4.5) in all four channels on the sensor chip surface simultaneously, resulting in >6,000 RU of Streptavidin being coupled (1 RU=1 pg protein/mm^2). All binding experiments involving lipoparticles were performed with 1×HBS/BSA (10 mM HEPES, 150 mM NaCl, 1 mg/mL BSA) as instrument running buffer. Biotinylated CXCR4 lipoparticles (Integral Molecular, Cat #LEV-101B; 3.6 U/mL as described in WO 2005/042695) were typically diluted 1 in 20 in the running buffer and immobilized onto a Streptavidin containing channel by injecting at […] for 1,800 sec resulting in captured response levels of greater than 2,500 RU. […] In order to determine binding kinetics, serial dilutions (three-fold) of i-bodies diluted in 1×HBS/BSA were injected over immobilized lipoparticles with the association and dissociation phases monitored for 60 sec and 600 sec, respectively. […]

[8] = biological target: CCR5 positive lipoparticles (Homo sapiens, UniProt P51681); test: Biacore SPR binding to CCR5 positive lipoparticles (off-target control)
CCR4 = biological target: T1, CCR4; test: PathHunter (DiscoverX) β-arrestin assay, CCR4; assay type: cell-based
Method: (FIG. 9) The PathHunter® β-Arrestin assay (DiscoveRx) was performed according to the manufacturer's protocol. Cells were seeded into white walled, 384-well tissue culture-treated microplates (Corning) and normalized at 5,000 cells (or 10,000 cells for CXCR4) in a total volume of […]. Cell growth was at 37° C. (5% CO2, 95% relative humidity). […] Agonists were then added at the EC80 concentration and incubation was continued at 37° C. for 90 min (or 180 min for CCR1). Assay signal was generated through a single addition of 15 μL (50% v/v) of PathHunter Detection reagent cocktail, followed by 1 h incubation at room temperature. Microplates were read following signal generation with a PerkinElmer Envision instrument for chemiluminescent signal detection of relative light units (RLU).

CXCR4 = CXCR4 (Homo sapiens, UniProt P61073); test: β-arrestin BRET assay, antagonist mode with 100 nM SDF-1; assay type: cell-based; set-up: expressed in transfected cells; host or cells: HEK293FT
Summary of the method: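 HEK293FT cells transiently co-expressed CXCR4/Rluc8 and β-arrestin2/Venus and were read at 37 °C with coelenterazine h or EnduRen substrate. i-Bodies were tested at ten concentrations with 100 nM SDF-1. BRET signal is the 520-540/400-475 nm emission ratio minus the vehicle ratio; mean±S.E.M. of four experiments in duplicate.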

CCRF-CEM cells = test: Immunohistochemistry staining of tumours in spleen and liver of SCID/bg mice; details: 130 μg/ml
Method: Tissues were fixed in 10% neutral buffered formalin overnight and subsequently transferred into tissue cassettes and placed in 70% ethanol. The tissues were then paraffin embedded. Slides containing 4 μm sections were deparaffinized and hydrated by incubating them in two changes of xylene for five min each, followed by two changes of 100% ethanol for 3 min each, 70% ethanol for 2 min, 50% ethanol for 2 min, and distilled water for 5 min. Antigen retrieval was performed by incubating the slides in 10 mM Citric acid solution (pH 6.0) in an 80° C. oven overnight. The slides were subsequently washed in PBS and permeabilized in 10% methanol containing 0.4% H2O2 for 30 min. […] All slides were subsequently stained with biotinylated anti-His tag antibodies (Miltenyi Biotech) and developed using an HRP-DAB cell and tissue staining kit according to the manufacturer's instructions (R&D systems).

Sequence of CXCR4 (P61073 whole entry): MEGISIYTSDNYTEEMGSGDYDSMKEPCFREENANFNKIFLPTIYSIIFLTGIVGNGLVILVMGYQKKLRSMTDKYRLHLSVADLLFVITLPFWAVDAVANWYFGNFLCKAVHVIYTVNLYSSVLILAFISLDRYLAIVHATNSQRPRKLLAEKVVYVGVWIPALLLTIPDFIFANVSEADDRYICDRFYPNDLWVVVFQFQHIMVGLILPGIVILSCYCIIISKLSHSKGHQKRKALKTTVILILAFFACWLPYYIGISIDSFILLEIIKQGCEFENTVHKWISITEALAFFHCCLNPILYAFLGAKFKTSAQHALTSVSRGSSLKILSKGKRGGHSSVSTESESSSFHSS
Sequence of CCR5 positive lipoparticles (P51681 whole entry): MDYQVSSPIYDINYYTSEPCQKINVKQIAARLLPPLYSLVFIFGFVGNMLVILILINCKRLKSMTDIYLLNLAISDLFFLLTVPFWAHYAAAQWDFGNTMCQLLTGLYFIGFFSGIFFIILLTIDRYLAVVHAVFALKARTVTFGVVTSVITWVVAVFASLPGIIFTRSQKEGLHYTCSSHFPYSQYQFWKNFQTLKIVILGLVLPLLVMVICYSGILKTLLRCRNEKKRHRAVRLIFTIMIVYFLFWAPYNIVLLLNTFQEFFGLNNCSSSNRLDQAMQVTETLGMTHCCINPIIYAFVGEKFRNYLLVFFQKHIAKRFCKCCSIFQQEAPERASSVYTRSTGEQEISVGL

| Molecule | recruitment of fibrocytes into the lungs ([1]; day 4, dose not given) | collagen content of the lung (Sircol) ([1]; positive controls, dose not stated) | development of pulmonary fibrosis in irradiated mice ([2]; Shu et al 2013) | bleomycin induced pulmonary fibrosis ([2]; Xu et al 2007) | induction of apoptosis in Ramos cells (Ramos tumor cells [3]) | invasion / motility of normal, slow and rapid IPF lung fibroblast lines ([4]; AMD3100 12 μM, 21H5 130 μg/ml) | growth of RAMOS cells (Ramos tumor cells [5]) | IC50 [6] [nM] | CCL2 protein in IPF fibroblast conditioned supernatants (CCL2 and CCL5 protein) | binding to null lipoparticles [7] | binding to CCR5 positive lipoparticles [8] | CCR4 activity (CCR4) [%] | IC50 (nM) in β-Arrestin BRET assay (Antagonist mode in the presence of 100 nM SDF-1) (CXCR4) | β-arrestin activity (CXCR4; various concentrations) | staining of CCRF-CEM cells in spleen and liver (CCRF-CEM cells) | invasion of rapid-IPF (fast progressor) lung fibroblasts ([4]; 130 μg/ml) | invasion of slow-IPF lung fibroblasts ([4]; 130 μg/ml) | CCL5 levels in IPF lung fibroblasts (CCL2 and CCL5 protein) |
| --- | --- | --- | --- | --- | --- | --- | --- | --- | --- | --- | --- | --- | --- | --- | --- | --- | --- | --- |
| c1cc(CN2CCCNCCNCCCNCC2)ccc1CN1CCCNCCNCCCNCC1 [AMD3100, reference compound] | able to block recruitment of fibrocytes | reduction in collagen | did not significantly suppress | effectively alleviate bleomycin induced pulmonary fibrosis | does not induce significant apoptosis | had no effect | able to inhibit cell growth | 50 | markedly increased | – | – | – | – | – | – | – | – | – |
| ADCX-99: CXCR4 binding i-body, SEQ ID NO: 11, parent of affinity matured binders (protein, ADCX-99 protein sequence) LQVDIVPSQGEISVGESKFFLCQVAGSGSDIRISWFSPNGEKLTPNQQRISVVWNDDSSSTLTIYNANIDDAGIYKCVVYRTGGYRHRALVLGEATVNVKIFQ | – | – | – | – | – | – | – | – | – | did not bind; also recorded: very little binding | did not bind; also recorded: very little binding | 34 | very weak effect; also recorded: No activity | some degree of inhibition | – | – | – | – |
| AM4-272-6H: AM4-272 with 6 His tag, containing the N-terminal sequence EAEA (protein, left off: small tags and cut ends) EAEALQVDIVPSQGEISVGESKFFLCQVAGSYSDYRISWFSPNGEKLTPNQQRISVVWNDDSSSTLTIYNANIDDAGIYKCVVYRIGGYRHRYLVLGEATVNVKIFQ | – | – | – | – | strongly induce apoptosis | – | – | – | markedly increased | – | – | – | – | – | stained CCRF-CEM cells | two out three | inhibited invasion | increased CCL5 levels in some IPF lung fibroblasts |
